Test [1] has as its target SARS-HCoV antigen(s) of unknown identity (purified whole virus, infected Vero cell lysate or infected Vero cells). In words: ELISA, OD on native virus against OD on heat-denatured virus.
For test [2] the target is unchanged. Description: ELISA, native gradient purified virus coated at 32 ng/well.
The target is the same in test [3]. Description: ELISA, virus heated 100 C 10 min, coated at 32 ng/well.

These results are taken from US20080081047A1.

B1: F26G3 (antibody, V domains shown)
VH: EVRLQQSGPELVKPGASVKISCKTSGYTFTEYTMHWVKQSHGKNLEWIGGINPNNGGTTYNQKFKGKATLTVDKSSNTAYMELRSLTSEDSAVYYCSRGDYGTSYGYFDVWGAGTTVTVSS
VL: DILMTQSPTSFAVSLGQRATISCRTSQSVSTSSYSYMHWYQQKPGQPPKLLIKYASNLESGVPARFSGSGSGSDFTLNIHPVEEGDTATYYCQHSWEIPCAFGGGTKLEIKR
In test [1], B1 came in with an O.D. Reduction, Fold of 4.5 fold and an O.D. Reduction, Percent of 78%. The ELISA OD 405 nm, Viral Lysate (native) in test [2] is 1.25 OD 405 nm. Further, in test [3], the ELISA OD 405 nm, Denatured Lysate came out at 0.276 OD 405 nm.

B2: F26G7 (antibody, V domains shown)
VH: VELLESGTVLARPGASVKMSCEASGYTFTTYWMHWIKQRPGQGLEWIGAIYPGNSDTTYNQKFKGKAKLTAVTSTSTAYMELSSLTNEDSAVYYCTREGIPQLLRTMDYWGQGTSVTVSS
VL: ELVMTQSPSSLSASLGERVSLTCRASQEISGYLSWLQQKPDGTIKRLIYAASTLDSGVPKRFSGSRSGSDYSLTISSLESEDFADYYCLQYISYPWTFGGGTKLEIKR
In test [1], B2 gave an O.D. Reduction, Fold of 5 fold and an O.D. Reduction, Percent of 80%. In test [2], the ELISA OD 405 nm, Viral Lysate (native) turned out to be 1.92 OD 405 nm. The same molecule had an ELISA OD 405 nm, Denatured Lysate in test [3] of 0.382 OD 405 nm.

B3: F26G9 (antibody, V domains shown)
VH: VQLLESGTVLARPGASVKMSCKASGYSFTSYWMHWVKQRPGQGLEWIGAIYPGNSDTSYNQKFKGKAKLTAVTSASTAYMELSSLTNEDSAVYYCTRSVYYGYGYFDVWGAGTTVTVSS
VL: DILMTQSHKCMSTSVGDRVSITCKASQDVSTAVVWYQQKPGQFPKLLIYWASTRHTGVPDRFTGSGSGTDYTLTISSVQAEDLALYYCQQHYTTPYTFGGGTKLEIKR
In test [1], B3 yielded an O.D. Reduction, Fold of 4.8 fold and an O.D. Reduction, Percent of 79%. In test [2], this molecule showed an ELISA OD 405 nm, Viral Lysate (native) of 1.34 OD 405 nm. The ELISA OD 405 nm, Denatured Lysate in test [3] worked out at 0.278 OD 405 nm.

B4: F26G10 (antibody, V domains shown)
VH: EVQLEESGTVLARPGASVKMSCKASGYSFTSYWMHWVKQRPGQGLDWIGAIYPENSDTSYNQKFKGKAKLTAVTSASTAYMEHSSLTNEDSAVYYCTRSVYYGYGYFDVWGAGTTVTVSS
VL: DILMTQSHKFMSTSVGDRVSITCKASQDVSTAVAWYQQKPGQSPKLLIYWASTRHTGVPDRFTGSGSGTDYTLTISSVQAEDLALYYCQQHYSTPYTFGGGTKLEIKR
For B4, in test [1], the O.D. Reduction, Fold stood at 4.3 fold and the O.D. Reduction, Percent was 77%. The molecule further gave an ELISA OD 405 nm, Viral Lysate (native) in test [2] of 1.26 OD 405 nm. In test [3], this molecule showed an ELISA OD 405 nm, Denatured Lysate of 0.29 OD 405 nm.
